The results in this text go back to doi:10.1101/2023.04.25.538284 (bioRxiv, 2023).

This assay concerns the target T1, His-MBP-SIZ1-C (Arabidopsis thaliana, UniProt Q680Q4-3 435-873).
T1 sequence (looked up): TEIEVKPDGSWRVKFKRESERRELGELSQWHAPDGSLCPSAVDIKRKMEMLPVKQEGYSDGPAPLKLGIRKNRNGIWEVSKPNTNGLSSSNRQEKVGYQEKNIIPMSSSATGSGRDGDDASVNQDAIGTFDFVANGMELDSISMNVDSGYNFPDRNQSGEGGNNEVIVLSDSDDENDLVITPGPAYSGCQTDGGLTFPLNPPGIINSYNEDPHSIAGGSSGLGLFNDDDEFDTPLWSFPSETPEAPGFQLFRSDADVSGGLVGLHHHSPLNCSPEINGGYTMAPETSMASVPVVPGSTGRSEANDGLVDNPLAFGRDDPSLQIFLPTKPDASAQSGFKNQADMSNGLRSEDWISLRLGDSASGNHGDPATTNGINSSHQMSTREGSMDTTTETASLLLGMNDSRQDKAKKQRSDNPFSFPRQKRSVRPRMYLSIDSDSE
Put plainly: pull-down.

B1: GST-SnRK2.6 (enzyme, Arabidopsis thaliana, UniProt Q940H6 1-362, looked up)
chain: MDRPAVSGPMDLPIMHDSDRYELVKDIGSGNFGVARLMRDKQSNELVAVKYIERGEKIDENVKREIINHRSLRHPNIVRFKEVILTPTHLAIVMEYASGGELFERICNAGRFSEDEARFFFQQLISGVSYCHAMQVCHRDLKLENTLLDGSPAPRLKICDFGYSKSSVLHSQPKSTVGTPAYIAPEVLLKKEYDGKVADVWSCGVTLYVMLVGAYPFEDPEEPKNFRKTIHRILNVQYAIPDYVHISPECRHLISRIFVADPAKRISIPEIRNHEWFLKNLPADLMNDNTMTTQFDESDQPGQSIEEIMQIIAEATVPPAGTQNLNHYLTGSLDIDDDMEEDLESDLDDLDIDSSGEIVYAM
On to B1, for which the binding result is “binds”.

B2: GST-SnRK2.4 (enzyme, Arabidopsis thaliana, UniProt P43291 1-363, looked up)
chain: MDKYELVKDIGAGNFGVARLMKVKNSKELVAMKYIERGPKIDENVAREIINHRSLRHPNIIRFKEVVLTPTHLAIAMEYAAGGELFERICSAGRFSEDEARYFFQQLISGVSYCHAMQICHRDLKLENTLLDGSPAPRLKICDFGYSKSSLLHSRPKSTVGTPAYIAPEVLSRREYDGKMADVWSCGVTLYVMLVGAYPFEDQEDPKNFRKTIQKIMAVQYKIPDYVHISQDCKNLLSRIFVANSLKRITIAEIKKHSWFLKNLPRELTETAQAAYFKKENPTFSLQTVEEIMKIVADAKTPPPVSRSIGGFGWGGNGDADGKEEDAEDVEEEEEEVEEEEDDEDEYDKTVKEVHASGEVRIS
Regarding B2, the binding result was “binds”.
